Assay results: PMC6066219 (PLoS ONE, 2018)
Marks after values point to notes of the source that are not given here. Starred links: 1 amine or outer side, 2 acyl side, 3 side chain; linkers in the order of their positions; H or OH if unused. Positions of bridges follow the written chain, without caps; N, C: chain ends. Non-standard residues stand in square brackets, D forms with d. Residues, ends and D or L forms follow the SMILES beside them. Chains are numbered I, II in the order given. *: point of attachment. X1 = CC1=CC(=O)N(O)CCCC(NC(=O)CCN2C(=O)CC([*:3])C2=O)C(=O)OCCC(C)=CC(=O)N(O)CCCC(NC(=O)CCN2C(=O)CC([*:2])C2=O)C(=O)OCCC(C)=CC(=O)N(O)CCCC(NC(=O)CCN2C(=O)CC([*:1])C2=O)C(=O)OCC1; X2 = CC(=O)NC1CCCN(O)C(=O)C=C(C)CCOC(=O)C(NC(=O)CCN2C(=O)CC([*:1])C2=O)CCCN(O)C(=O)C=C(C)CCOC(=O)C(NC(=O)CCN2C(=O)CC([*:2])C2=O)CCCN(O)C(=O)C=C(C)CCOC1=O; X3 = CC(=O)NC1CCCN(O)C(=O)C=C(C)CCOC(=O)C(NC(=O)CCN2C(=O)CC(*)C2=O)CCCN(O)C(=O)C=C(C)CCOC(=O)C(NC(C)=O)CCCN(O)C(=O)C=C(C)CCOC1=O; Nle = CCCC[C@H](N)C(=O)O; Mpa = O=C(O)CCS

What was measured:
[1] = type: physicochemical; conditions: for logD: pH 7.4
Description: To determine the distribution of the ^68Ga-radiolabelled conjugates between an organic and aqueous layer aliquots (50 μL) of the tracers (10 μM) were diluted in 450 μL PBS and after adding 500 μL octanol the mixture was vortexed at 1400 rpm (MS 3 basic vortexer, IKA, Staufen, Germany) for 15 min at RT followed by centrifugation for 2 min at 4500 rpm. Subsequently, aliquots (100 μL) of both layers were collected and measured in the gamma counter (Wizard2 3”, Perkin Elmer, Waltham, MA, USA) followed by logD calculation using Excel (n = 3, six replicates).

in vivo = assay: in vivo; design: species or system BALB/c nude mice; conditions: female, BALB/c nude, mouse, iv, total radioactivity
Description: (§1) Ex vivo biodistribution studies were conducted using female 8−10 weeks old athymic BALB/c nude mice (Charles River Laboratories, Sulzfeld, Germany). Tumour xenografts were induced by subcutaneous injection of 2 × 10^6 A431-CCK2R cells (receptor positive) in the right and 2 × 10^6 A431-mock cells (receptor negative) in the left flank and tumours were allowed to grow until they had reached a volume of 0.3–0.6 cm^3.To evaluate the biodistribution profile double tumour xenografted BALB/c nude mice (n = 3) were intravenously injected with 1–2 MBq of ^68Ga-labelled peptides (0.1–0.2 nmol). The animals were sacrificed by cervical dislocation after 1 h and 4 h in case of the trimer. The collected samples were measured in the gamma counter and the results were calculated as percentage of injected activity per gram tissue (% IA/g).

[2] = tested on: A431-CCK2R/A431-mock tumour xenografted BALB/c nude mice; assay: in vivo; conditions: mouse
Description: as §1

CCK2 receptor = target: T1, CCK2 receptor (Homo sapiens, UniProt P32239); assay: Receptor binding affinity studies (IC50) on whole A431-CCK2R cells vs 125I-[Leu15]-gastrin I; conditions: natGa-labelled competitor, 125I-[Leu15]-Gastrin radioligand
T1 construct: expressed in transfected cells; host or cells: A431 human epidermoid carcinoma cells (A431-CCK2R), gift from Dr. L. Aloj
T1 sequence (P32239 1-447): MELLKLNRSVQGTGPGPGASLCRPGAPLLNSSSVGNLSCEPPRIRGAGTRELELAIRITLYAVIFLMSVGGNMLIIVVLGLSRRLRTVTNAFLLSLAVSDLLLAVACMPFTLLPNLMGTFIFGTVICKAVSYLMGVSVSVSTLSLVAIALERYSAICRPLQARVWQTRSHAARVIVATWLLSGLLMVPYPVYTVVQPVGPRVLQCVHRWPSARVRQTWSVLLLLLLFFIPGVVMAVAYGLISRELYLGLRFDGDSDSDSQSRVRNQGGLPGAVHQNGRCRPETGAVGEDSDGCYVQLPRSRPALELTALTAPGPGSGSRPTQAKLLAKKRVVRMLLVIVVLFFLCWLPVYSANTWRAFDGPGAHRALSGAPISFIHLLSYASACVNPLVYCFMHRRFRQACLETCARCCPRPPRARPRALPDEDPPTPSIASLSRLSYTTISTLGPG
Description: Binding affinity studies on whole A431-CCK2R cells were performed as previously described. Briefly, 100 μL of cell suspension (5 × 10^6 cells/mL) was added to each well of a 96-well MultiScreen Filter Plate HTS (1 μm glass fiber filter, Merck Millipore, Darmstadt, Germany). Hereafter competitor solution was added with increasing concentrations [0.001−1.000 nM] and after 10 min at RT human [Leu^15]-gastrin I radiolabelled with iodine-125 as described in [16] was added (4.5 × 10^4 cpm) and the plate was maintained under shaking conditions (Compact shaker KS-15 control, 200/min) at ambient temperature. After 1 h each well was washed twice with 200 μL TRIS-buffered saline (pH 7.3), filters were collected and measured in the gamma counter followed by nonlinear curve fitting with Origin 6.1 software (Northampton, MA, USA) to calculate the IC50 values.

Work on `CCCC[C@H](NC(=O)[C@H](Cc1c[nH]c2ccccc12)NC(=O)CNC(=O)[C@H](Cc1ccc(O)cc1)NC(=O)[C@H](C)NC(=O)[C@@H](CCC(=O)O)NC(=O)CCSC1CC(=O)N(CCC(=O)NC2CCCN(O)C(=O)C=C(C)CCOC(=O)C(NC(=O)CCN3C(=O)CC(SCCC(=O)N[C@H](CCC(=O)O)C(=O)N[C@@H](C)C(=O)N[C@@H](Cc4ccc(O)cc4)C(=O)NCC(=O)N[C@@H](Cc4c[nH]c5ccccc45)C(=O)N[C@@H](CCCC)C(=O)N[C@@H](CC(=O)O)C(=O)N[C@@H](Cc4ccccc4)C(N)=O)C3=O)CCCN(O)C(=O)C=C(C)CCOC(=O)C(NC(C)=O)CCCN(O)C(=O)C=C(C)CCOC2=O)C1=O)C(=O)N[C@@H](CC(=O)O)C(=O)N[C@@H](Cc1ccccc1)C(N)=O` (stereo partly drawn) [Dimer-Nle] (I: [Mpa][dE]AYGW[Nle]DF-NH2 / II: [Mpa][dE]AYGW[Nle]DF-NH2; linker I:1-II:1 via X2) yielded a logD [1] of -2.05 ± 0.19, a tissue uptake at 1 h (in vivo; A431-CCK2R tumour uptake) of 5 ± 0.79 %ID/g and a tissue uptake at 1 h (in vivo; A431-mock tumour uptake) of 0.65 ± 0.14 %ID/g. It also gave a tissue uptake at 1 h (in vivo; Blood uptake) of 1.4 ± 0.48 %ID/g, a tissue uptake at 1 h (in vivo; Bone uptake) of 0.8 ± 0.37 %ID/g and a tissue uptake at 1 h (in vivo; Heart uptake) of 0.62 ± 0.12 %ID/g. For the same compound, the tissue uptake at 1 h (in vivo; Intestine uptake) was 0.64 ± 0.12 %ID/g, the tissue uptake at 1 h (in vivo; Kidneys uptake) was 12.8 ± 0.16 %ID/g and the tissue uptake at 1 h (in vivo; Liver uptake) was 3.49 ± 0.94 %ID/g. For the same compound, the tissue uptake at 1 h (in vivo; Lung uptake) was 1.54 ± 0.33 %ID/g, the tissue uptake at 1 h (in vivo; Muscle uptake) was 0.36 ± 0.12 %ID/g and the tissue uptake at 1 h (in vivo; Pancreas uptake) was 0.98 ± 0.28 %ID/g. For the same compound, the tissue to tissue ratio at 1 h (in vivo; Ratio T/O tumour-to-Blood) was 4 ± 1.3, the tissue to tissue ratio at 1 h (in vivo; Ratio T/O tumour-to-Bone) was 7.6 ± 3.2 and the tissue to tissue ratio at 1 h (in vivo; Ratio T/O tumour-to-Heart) was 8.2 ± 1.2. The tissue to tissue ratio at 1 h (in vivo; Ratio T/O tumour-to-Intestine) was 8.1 ± 1.8, the tissue to tissue ratio at 1 h (in vivo; Ratio T/O tumour-to-Kidneys) was 0.39 ± 0.06 and the tissue to tissue ratio at 1 h (in vivo; Ratio T/O tumour-to-Liver) was 1.5 ± 0.4. For the same compound, the tissue to tissue ratio at 1 h (in vivo; Ratio T/O tumour-to-Lung) was 3.3 ± 0.5, the tissue to tissue ratio at 1 h (in vivo; Ratio T/O tumour-to-Muscle) was 15.8 ± 5.8 and the tissue to tissue ratio at 1 h (in vivo; Ratio T/O tumour-to-Pancreas) was 5.4 ± 1.3. It also gave a tissue to tissue ratio at 1 h (in vivo; Ratio T/O tumour-to-Spleen) of 5.2 ± 0.5, a tissue to tissue ratio at 1 h (in vivo; Ratio T/O tumour-to-Stomach) of 2.2 ± 0.3 and a tissue uptake at 1 h (in vivo; Spleen uptake) of 0.95 ± 0.07 %ID/g. The tissue uptake at 1 h (in vivo; Stomach uptake) was 2.25 ± 0.17 %ID/g and the “Ratio T/O tumour-to-A431-mock” value [2] was 8.0 ± 1.8^c.
In the case of `CCCC[C@H](NC(=O)[C@H](Cc1c[nH]c2ccccc12)NC(=O)CNC(=O)[C@H](Cc1ccc(O)cc1)NC(=O)[C@H](C)NC(=O)[C@@H](CCC(=O)O)NC(=O)CCSC1CC(=O)N(CCC(=O)NC2CCCN(O)C(=O)C=C(C)CCOC(=O)C(NC(C)=O)CCCN(O)C(=O)C=C(C)CCOC(=O)C(NC(C)=O)CCCN(O)C(=O)C=C(C)CCOC2=O)C1=O)C(=O)N[C@@H](CC(=O)O)C(=O)N[C@@H](Cc1ccccc1)C(N)=O` (stereo partly drawn) [Monomer-Nle] ([Mpa](X3)[dE]AYGW[Nle]DF-NH2), the logD [1] is reported as -2.69 ± 0.14, the tissue uptake at 1 h (in vivo; A431-CCK2R tumour uptake) is reported as 1.97 ± 0.25 %ID/g and the tissue uptake at 1 h (in vivo; A431-mock tumour uptake) is reported as 0.22 ± 0.07 %ID/g. The tissue uptake at 1 h (in vivo; Blood uptake) was 0.25 ± 0.07 %ID/g, the tissue uptake at 1 h (in vivo; Bone uptake) was 0.3 ± 0.12 %ID/g and the tissue uptake at 1 h (in vivo; Heart uptake) was 0.12 ± 0.03 %ID/g. The tissue uptake at 1 h (in vivo; Intestine uptake) was 0.36 ± 0.12 %ID/g, the tissue uptake at 1 h (in vivo; Kidneys uptake) was 2.72 ± 0.29 %ID/g and the tissue uptake at 1 h (in vivo; Liver uptake) was 0.17 ± 0.01 %ID/g. For the same compound, the tissue uptake at 1 h (in vivo; Lung uptake) was 0.25 ± 0.03 %ID/g, the tissue uptake at 1 h (in vivo; Muscle uptake) was 0.1 ± 0.02 %ID/g and the tissue uptake at 1 h (in vivo; Pancreas uptake) was 0.24 ± 0.02 %ID/g. The tissue to tissue ratio at 1 h (in vivo; Ratio T/O tumour-to-Blood) was 9 ± 3.6, the tissue to tissue ratio at 1 h (in vivo; Ratio T/O tumour-to-Bone) was 7.9 ± 3.1 and the tissue to tissue ratio at 1 h (in vivo; Ratio T/O tumour-to-Heart) was 17.6 ± 5.2. It also gave a tissue to tissue ratio at 1 h (in vivo; Ratio T/O tumour-to-Intestine) of 6.6 ± 3.6, a tissue to tissue ratio at 1 h (in vivo; Ratio T/O tumour-to-Kidneys) of 0.75 ± 0.18 and a tissue to tissue ratio at 1 h (in vivo; Ratio T/O tumour-to-Liver) of 11.5 ± 2. For the same compound, the tissue to tissue ratio at 1 h (in vivo; Ratio T/O tumour-to-Lung) was 8.1 ± 2.1, the tissue to tissue ratio at 1 h (in vivo; Ratio T/O tumour-to-Muscle) was 22.1 ± 6 and the tissue to tissue ratio at 1 h (in vivo; Ratio T/O tumour-to-Pancreas) was 8.4 ± 1.6. It also gave a tissue to tissue ratio at 1 h (in vivo; Ratio T/O tumour-to-Spleen) of 19.8 ± 4, a tissue to tissue ratio at 1 h (in vivo; Ratio T/O tumour-to-Stomach) of 3.1 ± 0.9 and a tissue uptake at 1 h (in vivo; Spleen uptake) of 0.1 ± 0.03 %ID/g. For the same compound, the tissue uptake at 1 h (in vivo; Stomach uptake) was 0.66 ± 0.11 %ID/g and the “Ratio T/O tumour-to-A431-mock” value [2] was 9.8 ± 2.2^b.
For `CCCC[C@H](NC(=O)[C@H](Cc1c[nH]c2ccccc12)NC(=O)CNC(=O)[C@H](Cc1ccc(O)cc1)NC(=O)[C@H](C)NC(=O)[C@@H](CCC(=O)O)NC(=O)CCSC1CC(=O)N(CCC(=O)NC2CCCN(O)C(=O)C=C(C)CCOC(=O)C(NC(=O)CCN3C(=O)CC(SCCC(=O)N[C@H](CCC(=O)O)C(=O)N[C@@H](C)C(=O)N[C@@H](Cc4ccc(O)cc4)C(=O)NCC(=O)N[C@@H](Cc4c[nH]c5ccccc45)C(=O)N[C@@H](CCCC)C(=O)N[C@@H](CC(=O)O)C(=O)N[C@@H](Cc4ccccc4)C(N)=O)C3=O)CCCN(O)C(=O)C=C(C)CCOC(=O)C(NC(=O)CCN3C(=O)CC(SCCC(=O)N[C@H](CCC(=O)O)C(=O)N[C@@H](C)C(=O)N[C@@H](Cc4ccc(O)cc4)C(=O)NCC(=O)N[C@@H](Cc4c[nH]c5ccccc45)C(=O)N[C@@H](CCCC)C(=O)N[C@@H](CC(=O)O)C(=O)N[C@@H](Cc4ccccc4)C(N)=O)C3=O)CCCN(O)C(=O)C=C(C)CCOC2=O)C1=O)C(=O)N[C@@H](CC(=O)O)C(=O)N[C@@H](Cc1ccccc1)C(N)=O` (stereo partly drawn) [Trimer-Nle] (I: [Mpa][dE]AYGW[Nle]DF-NH2 / II: [Mpa][dE]AYGW[Nle]DF-NH2 / III: [Mpa][dE]AYGW[Nle]DF-NH2; linker I:1-II:1-III:1 via X1), the “Distribution coefficient logD (pH 7.4)” value [1] was -1.80 ± 0.16 and the IC50 (CCK2 receptor) was 20.9 ± 1.13 nM.
